The assay deals with T1, BG505 gp120 (HIV-1 isolate BG505).
T1 construct: also called monomeric gp120; the monomer
Put plainly: ELISA; plates coated with 250 ng of BG505 gp120; monoclonal antibodies from 20 μg/mL in seven 6-fold dilutions; detected with alkaline phosphatase conjugated anti-human F(ab')2; room temperature. Conditions: both partners purified. In general terms: ELISA stands for enzyme-linked immunosorbent assay.

The record followed here is article PMC11412654, “Immunization of cows with HIV envelope trimers generates broadly neutralizing antibodies to the V2-apex from the ultralong CDRH3 repertoire” (PLOS Pathogens, 2024).

B1: Bess2 (antibody)
VH: KVQLRESGPSLVKPSQTLSLTCTVSGFSLSDKAVGWVRQAPGKALEWLGSIDTGGSTGYNPGLKSRLSITKDNSKSQVSLSVTSVTTEDSTTYYCTTVHQTTKTTKKCPDGYNYDDGCASDLGCGEADCCCYGGYDEYGGYLYSCCSYSYTYEWYVDAWGQGLLVTVSS
VL: QAVLNQPSSVSGSLGQRVSITCSGSSSNVGNGYVSWYQLIPGSAPRTLIYGDTSRASGVPDRFSGSRSGNTATLTISSLQAEDEADYFCASAEDSSSNAVFGSGTTLTVL
notes: also called Bess2 mAb; source: Expi293 or 293F cells, transfected, purified (Protein A Sepharose or Praesto AP)
Take B1: the binding result is given as “no binding (tested: 20 μg/mL (highest concentration))”.

B2: Bess6 (antibody)
VH: KVQLRESGPSLVKPSQTLSLICTVSGFSLSDKAVGWVRQAPGKALEWLGSIDTAGTTDHHPGLKSRLSITKDNSKNQVSLSLSSVTTEDSATYYCTTVHQPTSKQYSCPDGASVRTGGGWRWLCRGHDCCCVVEYIAYEQTPCTLTRTYEWHIDAWGQGLLVTVSS
VL: B1 VL
notes: also called Bess6 mAb; source: Expi293 or 293F cells, transfected, purified (Protein A Sepharose or Praesto AP)
B2: the binding result is given as “no binding (tested: 20 μg/mL (highest concentration))”.
